Assay results taken from patent publication US10752881B2, “Trans-differentiation of differentiation cells” (Helmholtz Zentrum München-Deutsches Forschungszentrum für …, priority 2014, dated 2020).

Columns and labels:
MEFs = settings: MyoD + A-Bcl-2 vs MyoD/GFP
[1] = test system: astroglial cells transfected with Ascl1-RFP; test: Lipid peroxidation (C11-Bodipy staining) and glutathione detection during reprogramming; type: cell-based, mouse; settings: co-transfected with Ascl1, 2 DPT
From the text: C, Micrographs show oxidized lipids (C11-Bodipy staining) at 2 DPT in astroglial cells transfected with Ascl1-REP alone or in combination with EE-Bcl-2 or A-Bcl-2. Note higher levels of oxidation in cells transfected with only Ascl1 or Ascl1+EE-BCl-2 (black arrows) compare to cells co-transfected with Ascl1+A-Bcl-2 (black arrowheads). High magnification pictures show partial co-localization of C11-Bodipy staining and DAPI in Ascl1-expressing cells contrarily to cells co-transfected with Ascl1+EE-Bcl-2 (see arrows).
D, Pictures show glutathione (GSH) detection of same cells shown in C. Cells with normal or increased levels of GSH are depicted by arrowheads and arrows respectively.
These observations open the question of why EE-Bcl-2 has no effect in neuronal reprogramming while A-Bcl-2 has.
For the detection of oxidative stress we used CellROX green Reagent (Life technologies, C10444) according with the described protocol and fluorescence was detected by microscope (see below).

[2] = test system: postnatal mouse astrocytes
Description: (C) Histogram of astroglial cultures transfected with Ascl1-RFP-encoding plasmid alone or in combination with WT-Bcl-2, EE-Bcl-2 or A-Bcl-2 at 4 days post-transfection (DPT). The number of transfected cells (RFP+) at final time point (4 DPT) was normalized to the initial number of transfected cells (1 DPT) to calculate the % of survival. The % of neuronal conversion was analysed by β-III-tubulin immunostaining and normalized to total number of RFP+ cells at the end of the experiment. Error bars indicate ±SD. *p<0.05, **p<0.01; ANOVA Tukeys post-test.
A, Quantifications at 5 DPT (days post-transfection) showing the effect of the inhibitor of ferroptosis, α-toc and the inhibitor of apoptosis, ZVAD in survival/efficiency of conversion of astroglial cells transfected with Ascl1-RFP.
C, Percentage of neurons in astroglial cells transfected with Ascl1-encoding plasmid alone or in combination with Bcl-2 and/or Vdr at 5 DPT after 4 days of treatment with calcitriol or untreated.
After removal of the meninges, grey matter tissue was dissected from P5-P7 cerebral cortex of C57BL/6J mice and dissociated mechanically. Subsequently, cells were centrifuged for 5 min at 1000 rpm, re-suspended, and plated in medium consisting of DMEM/F12 (Gibco), 3.5 mM glucose (Sigma), 10% fetal calf serum (Gibco), 5% horse serum (Gibco), penicillin/streptomycin (Gibco) and supplemented with B27 (Gibco), 10 ng/mL epidermal growth factor (EGF, Roche) and 10 ng/mL fibroblast growth factor 2 (FGF2, Roche). After one week expansion cells were harvested using trypsin/EDTA (Gibco) and plated onto poly-D-lysine (Sigma-Aldrich) coated glass coverslips in 24-well plates (BD Biosciences) or directly onto the plastic for time lapse experiments at a density of 60,000 cells per well in the same medium. After 24 hours cells were either transfected with plasmid or infected with retroviral vectors and after further 24 hours medium was changed to differentiation medium composed of DMEM/F12 high glucose with GlutaMAX, penicillin/streptomycin and B27 supplement (Gibco) to allow neuronal differentiation.
For transfection DNA-liposome complexes were prepared in Optimem medium (Invitrogen) using the retroviral plasmids described below and Lipofectamine 2000 (Invitrogen). Astrocyte cultures were exposed to DNA-liposome complexes at a concentration of 0.5 μg DNA per 400 μl of Optimem medium for 4 hours and cultured after that in the differentiation medium as above.
Cells were fixed in 4% paraformaldehyde (PFA) in phosphate-buffered saline (PBS) for 10 min at room temperature (RT), washed in PBS and pretreated in 0.5% Triton X-100 in PBS for 30 min, followed by incubation in 2% BSA and 0.5% Triton X-100 in PBS for 30 min. Primary antibodies were incubated on specimen overnight at 4° C. in 2% BSA, 0.5% Triton X-100 in PBS.

[3] = test system: Mouse embryonic fibroblasts (MEFs); test: Fibroblast-to-neuron reprogramming of MEFs with retroviral vectors, β-III-tubulin immunostaining; type: cell-based; settings: for neuronal conversion in MEFs (β-III-tubulin): Ascl1-based retroviral vectors, 14 days after infection
[4] = test system: astroglia isolated from mouse cerebral cortex at postnatal day 5-7; test: Continuous single cell live imaging of Ascl1-mediated astrocyte-to-neuron reprogramming; type: cell-based; settings: for increase of proportion of cells successfully completing reprogramming into neurons: Ascl1 + Bcl-2 vs Ascl1 only
From the text: In order to identify the cellular mechanisms of neuronal reprogramming, astroglia isolated from mouse cerebral cortex at postnatal day 5-7 were transfected with an Ascl1-encoding vector thereby targeting non-proliferating cells in addition to those transduced by approaches such as MLV-based retroviral vectors that require proliferation and break-down of the nuclear envelope for successful gene transfer. Our transfection protocol (Heinrich et al., PLoS biology 8, e1000373 (2010); Heinrich et al., Nature protocols 6, 214-228 (2011)) enables cells labelled by red fluorescent protein (RFP) 24 hours after transfection to be subject to continuous live imaging for the main phase of reprogramming (i.e. 6 days). Glial and neuronal cells were identified by their morphology, with the former displaying a flat astrocyte-like morphology and the latter with a round cell soma and thin processes (monopolar, bipolar and multipolar) at least 3× longer than the cell soma. This morphology-based classification was confirmed by post-imaging immunostaining (FIG. 1A). Few of the cells transduced with Ascl1 divided during the 150 hours observation (15%: FIG. 1E). Thus, the vast majority of direct neuronal reprogramming occurs in the absence of proliferation in this system.
Time-lapse video microscopy was performed with a cell observer (Zeiss) at a constant temperature of 37° C. and 8% CO2. Phase contrast images were acquired every 5 minutes, and fluorescence pictures every 4-6 hours for 6.5-7.5 days using a 10× phase contrast objective (Zeiss), and an AxioCamHRm camera with a self-written VBA module remote controlling Zeiss AxioVision 4.7 software (Rieger and Schroeder, Journal of cellular biochemistry 108, 343-352 (2009)). Movies were assembled using Image J 1.42q (National Institute of Health, USA) software and are played at speed of 3 frames per second.

vitamin d receptor (vdr) = test: Vdr expression during neuronal reprogramming (immunostaining); type: cell-based; settings: during neuronal reprogramming with Ascl1, 5 DPI
Description: A, Percentage of cells expressing Vdr in cultures infected with Ascl1-encoding vector alone or Ascl1+A-Bcl-2 at 5 DPI. Vdr presence was determined by immunostaining (B). Note that Bcl-2 increases the proportion of cells expressing endogenous Vdr during neuronal reprogramming.

reactive glial cells = test: In vivo conversion of reactive glial cells into neurons after stab wound injury; settings: 10 DPI
From the text: A, Experimental protocol for stab wound injury and subsequent infection with retroviral vectors (Neurog2/RFP and Bcl-2/GFP) or treatment with calcitriol, analysed at 10 or 20 days post-infection (DPI).
To highlight the relevance of our findings we next tested the efficiency of the methods described above in vivo. For that, we performed stab wound injury followed by injection of retroviral vectors encoding Neurog2-IRES-RFP and Bcl-2-IRES-GFP next to the injury site (FIG. 7A) using a previously described protocol (see Heinrich et al., 2014). Control infected cells were glial in nature, mostly NG2+ cells of the oligodendrocyte lineage or S100b/GFAP+ astrocytes as described before (Heinrich et al., 2014). […] To examine whether key metabolic constraints observed to be important for fate conversion in vitro were also relevant in vivo we tested activation of the Vitamin D receptor pathway by the ligand calcitriol.
Operations were performed in accordance with the policies of the state of Bavaria under license number 55.2-1-54-2532-171-11. A unilateral stab wound lesion (1 mm long, 0.6 mm deep from the dura mater) was performed in the right neocortex with a 19 gauge-thick lancet without injuring the cortical white matter, as previously described (Sirko et al. 2013; Simon et al. 2011). Three days later, 0.5-1 μl of retroviral suspension (Neurog2-IRES-RFP and Bcl-2-IRES-GFP, 1:1) was injected in the site of the lesion with a glass capillary connected to a microinjector (Nanoliter2000+Sys-Micro4, World Precision Instrument), at a rate of 30-60 nl/min. The needle was retracted 5 minutes after completing the injection. When indicated in the text, 200 μl of Calcitriol (Tocris) diluted in corn oil (final concentration of 1 ng/μl) were administered through oral gavage 2 days after the retroviral injection. The dosage was determined according with previous publications (Nashold et al. 2013).
Animals were anesthetized and transcardially perfused with 1× phosphate-buffered saline (PBS), followed by 4% paraformaldehyde (PFA) in PBS. Brains were postfixed for 2 hours, washed twice with PBS and embedded in 4% agarose/water. Finally, 60 μm-thick coronal sections were cut using a vibrating microtome (Leica).

Which “speed of conversion into skeletal muscle cells” value (MEFs) does the source give for “A-Bcl-2: S70A recombinant Bcl-2 with reduced ability to interact with Bax, mimics the un-phosphorylated form” here?
Its value is “converted much faster into skeletal muscle cells”.

And the “effect on lipid peroxidation / oxidative stress (C11-Bodipy)” value [1]?
The value was “very efficiently reducing oxidative stress”.

What about the “effect on cell survival during reprogramming” value ([2]; co-transfected with Ascl1-RFP, 4 days) of the same molecule?
Its value is “decreased survival compared to those transfected with WT-Bcl-2- or EE-Bcl-2-encoding plasmids”.

What about the “effect on proportion of neuronal conversion mediated by Ascl1” value ([2]; co-transfected with Ascl1-RFP, 4 days, β-III-tubulin) of the same molecule?
Its value is “increased proportion of neurons induced from the transfected astrocytes”.

And the “neuronal conversion in MEFs (β-III-tubulin)” value [3]?
Its value is greater than 75%.

What about the “increase of proportion of neurons induced from MEFs” value ([3]; Neurog2 + A-Bcl-2 vs Neurog2/RFP) of the same molecule?
The value was 6 ×.

What about the “proportion of neurons induced from MEFs, of all infected cells” value ([3]; Neurog2-based retroviral vectors, 15 days after infection) of the same molecule?
Its value is 63%.

B1: Bcl-2: mouse Bcl-2 cDNA expressed from plasmid or retroviral vector; anti-apoptotic member of the Bcl-2 family (protein, listed as Mus musculus)
chain: MAQAGRTGYDNREIVMKYIHYKLSQRGYEWDAGDADAAPLGAAPTPGIFSFQPESNPMPAVHRDMAARTSPLRPLVATAGPALSPVPPVVHLTLRRAGDDFSRRYRRDFAEMSSQLHLTPFTARGRFATVVEELFRDGVNWGRIVAFFEFGGVMCVESVNREMSPLVDNIALWMTEYLNRHLHTWIQDNGGWDAFVELYGPSMRPLFDFSWLSLKTLLSLALVGACITLGAYLGHK
With B1 as the molecule, how does the “fraction of cells with acquired neuronal morphology dying” value ([4]; Ascl1 + Bcl-2) read?
The value was “about ⅓”.

And the “survival rate of remaining glial cells” value ([4]; Ascl1 + Bcl-2)?
Its value is 10%.

And the “survival rate of successfully converted cells” value ([4]; Ascl1 + Bcl-2)?
Its value is 2/3.

And the “effect on rate of proliferation during reprogramming” value ([4]; Ascl1 + Bcl-2, 150 h)?
Its value is “did not affect the rate of proliferation during reprogramming”.

What about the “effect on speed of astrocyte-to-neuron conversion” value ([4]; Ascl1 + Bcl-2, first 50-75 h of tracking) of the same molecule?
The value was “accelerated astrocyte-to-neuron conversion”.

And the “increase of proportion of cells successfully completing reprogramming into neurons” value ([4]; at 50 h of tracking)?
Its value is roughly 8 fold.

And the “increase of proportion of cells successfully completing reprogramming into neurons” value ([4]; end of the tracking time period)?
Its value is “over 3 fold”.

And the “effect on survival of cells during neuronal conversion” value ([4]; co-transduction with Ascl1, 150 hours imaging)?
The value was “robustly enhanced survival of cells during neuronal conversion”.

What about the “effect on total number of surviving cells and reprogrammed neurons” value ([2]; co-transfected with Ascl1/RFP, 6 and 12 days) of the same molecule?
The value was “distinctly increased the total number of surviving cells and reprogrammed neurons”.

What about the “effect on expression of vdr” value (vitamin d receptor (vdr)) of the same molecule?
The value was “induces expression of vdr”.

And the “neuronal conversion in MEFs (β-III-tubulin)” value [3]?
The value was 42.8%.

What about the “neuronal conversion of co-transduced cells (GFP+/RFP+)” value (reactive glial cells; Neurog2-IRES-RFP and Bcl-2-IRES-GFP co-transduced) of the same molecule?
The value was “many co-transduced cells (GFP+/RFP+) exhibited elongated neuronal-shape morphology and were immunoreactive for NeuN”.

What about the “acquisition of neuronal marker NeuN by singly transduced cells” value (reactive glial cells; single GFP+ or RFP+ cells) of the same molecule?
Its value is “rarely acquired the neuronal marker NeuN”.
